Measured values as given in patent US20110256172A1.

Target: Bacillus anthracis protective antigen (PA83, List Biological Laboratories) (Bacillus anthracis) (UniProt P13423)
Assay: cell-based or functional assay

Sequence of UniProt P13423 (P13423 30-764): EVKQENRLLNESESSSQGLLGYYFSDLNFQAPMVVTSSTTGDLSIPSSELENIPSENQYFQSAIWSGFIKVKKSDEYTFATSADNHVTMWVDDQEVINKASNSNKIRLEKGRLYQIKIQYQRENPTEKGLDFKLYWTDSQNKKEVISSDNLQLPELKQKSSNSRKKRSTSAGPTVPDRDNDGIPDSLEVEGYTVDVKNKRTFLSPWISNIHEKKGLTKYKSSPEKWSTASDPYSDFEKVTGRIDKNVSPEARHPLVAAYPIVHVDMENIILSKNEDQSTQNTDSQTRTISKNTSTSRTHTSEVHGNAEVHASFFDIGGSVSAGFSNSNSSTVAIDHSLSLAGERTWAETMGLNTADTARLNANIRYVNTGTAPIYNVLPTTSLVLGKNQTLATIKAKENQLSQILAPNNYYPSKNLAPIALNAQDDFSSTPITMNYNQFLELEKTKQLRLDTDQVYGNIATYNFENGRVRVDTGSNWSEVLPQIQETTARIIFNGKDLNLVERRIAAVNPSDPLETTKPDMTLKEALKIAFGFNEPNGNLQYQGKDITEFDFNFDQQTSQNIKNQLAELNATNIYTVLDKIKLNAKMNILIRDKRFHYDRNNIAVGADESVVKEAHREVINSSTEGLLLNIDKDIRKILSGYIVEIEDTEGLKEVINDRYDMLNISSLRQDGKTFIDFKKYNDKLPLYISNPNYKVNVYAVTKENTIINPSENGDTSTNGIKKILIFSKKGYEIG

| Substance | peak neutralization titer (TNA) (fold over the control PA antiserum) |
| --- | --- |
| Sera of the three rabbits immunized with MAP304 (four copies of P30-PA 304-319) | 23 |
| Sera of the three rabbits immunized with MAP305 (four copies of P30-PA 305-319) | 19 |
